Test results as given in patent US20240117057A1 (CELLDEX THERAPEUTICS, published 2024).
Read-outs that look alike come from different tables or passages of the source. Each block holds one binder with its values, some of them ahead of it.

Assays:
human KIT = human KIT (human, UniProt P10721 26-976); test: cell-based or functional assay
recombinant human FcγRI [1] = molecular target: T1, recombinant human FcγRI (human, UniProt P12314 16-288); test: BLI (Octet QKe), His-tagged receptor on anti-Penta-His biosensors, antibody in solution
T1 construct: Histidine-tagged recombinant receptor captured on anti-Penta-His biosensors; also called FcgRI; not shown: histidine tag
T1 sequence (P12314 16-288 limits assumed): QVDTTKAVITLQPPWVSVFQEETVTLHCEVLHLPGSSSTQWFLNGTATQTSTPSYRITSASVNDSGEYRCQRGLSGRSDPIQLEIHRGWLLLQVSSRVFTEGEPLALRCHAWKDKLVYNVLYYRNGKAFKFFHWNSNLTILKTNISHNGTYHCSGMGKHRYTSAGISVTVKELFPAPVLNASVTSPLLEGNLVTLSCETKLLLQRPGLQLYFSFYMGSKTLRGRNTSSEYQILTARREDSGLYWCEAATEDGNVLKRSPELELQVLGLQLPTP

[2] = molecular target: T2, recombinant human FcγRIIa (human, UniProt P12318 36-218, limits assumed); test: as above
T2 construct: Histidine-tagged recombinant receptor captured on anti-Penta-His biosensors; not shown: histidine tag
T2 sequence (looked up): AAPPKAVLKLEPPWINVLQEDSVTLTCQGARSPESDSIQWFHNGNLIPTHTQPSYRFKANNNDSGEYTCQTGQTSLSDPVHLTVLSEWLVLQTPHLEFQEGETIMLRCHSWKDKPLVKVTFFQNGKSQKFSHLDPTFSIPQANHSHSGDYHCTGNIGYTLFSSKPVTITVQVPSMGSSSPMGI

[3] = molecular target: T3, recombinant human FcγRIIIa (human, UniProt P08637 17-208); test: as above
T3 construct: Histidine-tagged recombinant receptor captured on anti-Penta-His biosensors; not shown: histidine tag
T3 sequence (P08637 17-208 limits assumed): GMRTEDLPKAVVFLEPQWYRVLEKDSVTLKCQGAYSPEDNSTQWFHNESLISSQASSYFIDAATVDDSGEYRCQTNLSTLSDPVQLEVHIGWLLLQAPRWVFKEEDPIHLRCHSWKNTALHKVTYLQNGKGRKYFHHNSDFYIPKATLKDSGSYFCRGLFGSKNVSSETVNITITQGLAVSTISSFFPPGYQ

[4] = molecular target: T4, recombinant human FcγRIIIb (human, UniProt O75015 17-200); test: as above
T4 construct: Histidine-tagged recombinant receptor captured on anti-Penta-His biosensors; not shown: histidine tag
T4 sequence (O75015 17-200 limits assumed): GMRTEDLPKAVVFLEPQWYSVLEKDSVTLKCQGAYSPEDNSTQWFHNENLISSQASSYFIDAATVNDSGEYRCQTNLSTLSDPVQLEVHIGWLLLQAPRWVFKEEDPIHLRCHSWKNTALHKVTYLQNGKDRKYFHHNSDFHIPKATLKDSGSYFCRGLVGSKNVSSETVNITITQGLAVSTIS

[5] = molecular target: T5, recombinant human FcγRIIb (human, UniProt P31994 43-217, limits assumed); test: Bio-layer interferometry sensorgrams, FcγRIIb on the sensor, serial dilutions of antibody
T5 construct: Histidine-tagged recombinant receptor captured on anti-Penta-His biosensors; not shown: histidine tag
T5 sequence (looked up): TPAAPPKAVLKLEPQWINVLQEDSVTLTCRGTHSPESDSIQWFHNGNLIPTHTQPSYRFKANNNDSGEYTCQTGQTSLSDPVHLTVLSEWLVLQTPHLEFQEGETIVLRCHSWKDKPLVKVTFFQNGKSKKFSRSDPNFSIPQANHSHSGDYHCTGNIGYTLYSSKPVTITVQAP

[6] = molecular target: T6, human neonatal Fc Receptor (FcRn) (human, UniProt P55899 24-297; P61769 21-119); test: BLI (Octet QKe) at pH 6.0, His-tagged receptor on anti-Penta-His biosensors; pH 6.0 (to simulate endocytic conditions)
T6 construct: Histidine-tagged recombinant receptor captured on anti-Penta-His biosensors; not shown: histidine tag

recombinant human FcγRI [7] = molecular target: T1, recombinant human FcγRI; test: Bio-layer interferometry (Octet QKe), His-tagged FcγRI captured on anti-Penta-His biosensors; range 62.5-7.8 nM; fit R2 0.9955
Experimental: (§1) Binding to recombinant human Fc receptors was measured by bio-layer interferometry using an Octet® QKe instrument. […] Curve fitting was performed using the instrument's analysis software.

[8] = molecular target: T2, recombinant human FcγRIIa; test: Bio-layer interferometry (Octet QKe), His-tagged FcγRIIa captured on anti-Penta-His biosensors; range 500-62.5 nM; fit R2 0.9791
Experimental: (§2) Binding to recombinant human Fc receptors was measured by bio-layer interferometry using an Octet® QKe instrument. […] Curve fitting was performed using the instrument's analysis software. Binding to FcRn was performed with association and dissociation steps at pH 6.0 as well as pH 7.2.

[9] = molecular target: T3, recombinant human FcγRIIIa; test: Bio-layer interferometry (Octet QKe), His-tagged FcγRIIIa captured on anti-Penta-His biosensors; range 125-15.6 nM; fit R2 0.9895
Experimental: as §2

[10] = molecular target: T4, recombinant human FcγRIIIb; test: Bio-layer interferometry (Octet QKe), His-tagged FcγRIIIb captured on anti-Penta-His biosensors; range 500-62.5 nM; fit R2 0.9723
Experimental: as §2

recombinant human FcγRI [11] = molecular target: T1, recombinant human FcγRI; test: Bio-layer interferometry (Octet QKe), His-tagged FcγRI captured on anti-Penta-His biosensors; printed as Kdis; range 62.5-7.8 nM; fit R2 0.9955
Experimental: as §2

[12] = molecular target: T2, recombinant human FcγRIIa; test: Bio-layer interferometry (Octet QKe), His-tagged FcγRIIa captured on anti-Penta-His biosensors; printed as Kdis; range 500-62.5 nM; fit R2 0.9791
Experimental: as §2

[13] = molecular target: T3, recombinant human FcγRIIIa; test: Bio-layer interferometry (Octet QKe), His-tagged FcγRIIIa captured on anti-Penta-His biosensors; printed as Kdis; range 125-15.6 nM; fit R2 0.9895
Experimental: as §2

[14] = molecular target: T4, recombinant human FcγRIIIb; test: Bio-layer interferometry (Octet QKe), His-tagged FcγRIIIb captured on anti-Penta-His biosensors; printed as Kdis; range 500-62.5 nM; fit R2 0.9723
Experimental: as §2

[15] = molecular target: T6, human neonatal Fc Receptor (FcRn); test: Bio-layer interferometry (Octet QKe), His-tagged FcRn captured on anti-Penta-His biosensors, association and dissociation at pH 6.0; range 500-62.5 nM; fit R2 0.9757
Experimental: as §2

[16] = molecular target: T6, human neonatal Fc Receptor (FcRn); test: Bio-layer interferometry (Octet QKe), His-tagged FcRn captured on anti-Penta-His biosensors, association and dissociation at pH 6.0; printed as Kdis; range 500-62.5 nM; fit R2 0.9757
Experimental: as §2
(§3) Binding to the human neonatal Fc Receptor (FcRn) was tested at physiological pH 7.2 as well as at pH 6.0 to simulate endocytic conditions.

[17] = molecular target: T6, human neonatal Fc Receptor (FcRn); test: BLI (Octet QKe) at pH 6.0, His-tagged receptor on anti-Penta-His biosensors
Experimental: as §2, §3

[18] = molecular target: T6, human neonatal Fc Receptor (FcRn); test: BLI (Octet QKe) at pH 7.2, His-tagged receptor on anti-Penta-His biosensors
Experimental: as §2, §3

[19] = molecular target: T5, recombinant human FcγRIIb; test: Bio-layer interferometry sensorgrams, FcγRIIb on the sensor, serial dilutions of antibody; remark: listed apart in the source
Experimental: as §1

[20] = molecular target: T3, recombinant human FcγRIIIa; test: Bio-layer interferometry sensorgrams, FcγRIIIa on the sensor, serial dilutions of antibody
Experimental: as §1

[21] = molecular target: T4, recombinant human FcγRIIIb; test: Bio-layer interferometry sensorgrams, FcγRIIIb on the sensor, serial dilutions of antibody
Experimental: as §2

recombinant human FcγRI [22] = molecular target: T1, recombinant human FcγRI; test: Bio-layer interferometry (Octet QKe), His-tagged FcγRI captured on anti-Penta-His biosensors
Experimental: as §2

[23] = molecular target: T2, recombinant human FcγRIIa; test: Bio-layer interferometry (Octet QKe), His-tagged FcγRIIa captured on anti-Penta-His biosensors
Experimental: as §1

[24] = molecular target: T6, human neonatal Fc Receptor (FcRn); test: Bio-layer interferometry (Octet QKe), His-tagged FcRn captured on anti-Penta-His biosensors, association and dissociation at pH 7.2; range 500-15.6 nM; fit R2 0.9876
Experimental: as §2

[25] = molecular target: T6, human neonatal Fc Receptor (FcRn); test: Bio-layer interferometry (Octet QKe), His-tagged FcRn captured on anti-Penta-His biosensors, association and dissociation at pH 6.0; range 31.25-1.9 nM; fit R2 0.9869
Experimental: as §2, §3

[26] = molecular target: T6, human neonatal Fc Receptor (FcRn); test: Bio-layer interferometry (Octet QKe), His-tagged FcRn captured on anti-Penta-His biosensors, association and dissociation at pH 7.2; printed as Kdis; range 500-15.6 nM; fit R2 0.9876
Experimental: as §2, §3

[27] = molecular target: T6, human neonatal Fc Receptor (FcRn); test: Bio-layer interferometry (Octet QKe), His-tagged FcRn captured on anti-Penta-His biosensors, association and dissociation at pH 6.0; printed as Kdis; range 31.25-1.9 nM; fit R2 0.9869
Experimental: as §2

Sequence of human KIT (P10721 other isoform, or with tags, fused parts or gaps limits assumed): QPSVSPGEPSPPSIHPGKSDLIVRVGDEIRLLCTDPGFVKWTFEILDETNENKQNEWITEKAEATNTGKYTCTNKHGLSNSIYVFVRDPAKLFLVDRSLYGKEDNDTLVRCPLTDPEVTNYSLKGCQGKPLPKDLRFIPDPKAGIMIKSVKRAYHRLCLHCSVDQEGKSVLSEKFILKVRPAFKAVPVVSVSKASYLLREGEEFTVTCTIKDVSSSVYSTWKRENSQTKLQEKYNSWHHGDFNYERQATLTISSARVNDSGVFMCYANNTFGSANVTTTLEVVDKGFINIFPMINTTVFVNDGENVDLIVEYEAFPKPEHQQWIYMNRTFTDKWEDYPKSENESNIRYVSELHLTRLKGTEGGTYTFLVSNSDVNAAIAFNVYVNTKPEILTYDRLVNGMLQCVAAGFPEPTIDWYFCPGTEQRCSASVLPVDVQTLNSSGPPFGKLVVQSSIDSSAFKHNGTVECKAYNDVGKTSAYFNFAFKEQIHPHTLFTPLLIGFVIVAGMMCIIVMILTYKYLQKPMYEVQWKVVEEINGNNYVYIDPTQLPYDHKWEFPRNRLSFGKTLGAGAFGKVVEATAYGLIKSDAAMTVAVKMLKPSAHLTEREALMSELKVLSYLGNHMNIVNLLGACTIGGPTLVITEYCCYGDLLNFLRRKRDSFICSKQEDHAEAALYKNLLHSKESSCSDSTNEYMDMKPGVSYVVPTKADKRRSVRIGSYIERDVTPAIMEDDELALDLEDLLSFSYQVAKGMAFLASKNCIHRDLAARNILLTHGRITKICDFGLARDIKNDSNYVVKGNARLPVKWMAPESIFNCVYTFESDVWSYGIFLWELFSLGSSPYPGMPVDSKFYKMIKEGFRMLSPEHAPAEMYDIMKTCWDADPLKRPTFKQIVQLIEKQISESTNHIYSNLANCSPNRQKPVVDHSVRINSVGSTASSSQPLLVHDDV

IC50, inhibition of SCF-dependent M-07e cell proliferation (human KIT): 1.12 nM
Kd (recombinant human FcγRI [1]): 3.39 nM
Kd [2]: 391 nM
Kd [3]: 127 nM
Kd [4]: 816 nM
Kd [6]: 211 nM
kon (recombinant human FcγRI [7]): 522000 M⁻¹ s⁻¹
kon [8]: 358000 M⁻¹ s⁻¹
kon [9]: 128000 M⁻¹ s⁻¹
kon [10]: 152000 M⁻¹ s⁻¹
koff (recombinant human FcγRI [11]): 0.00177 s⁻¹
koff [12]: 0.14 s⁻¹
koff [13]: 0.0162 s⁻¹
koff [14]: 0.124 s⁻¹
kon [15]: 141000 M⁻¹ s⁻¹
koff [16]: 0.0296 s⁻¹
B1: mAbc (antibody, human IgG1, kappa)
heavy: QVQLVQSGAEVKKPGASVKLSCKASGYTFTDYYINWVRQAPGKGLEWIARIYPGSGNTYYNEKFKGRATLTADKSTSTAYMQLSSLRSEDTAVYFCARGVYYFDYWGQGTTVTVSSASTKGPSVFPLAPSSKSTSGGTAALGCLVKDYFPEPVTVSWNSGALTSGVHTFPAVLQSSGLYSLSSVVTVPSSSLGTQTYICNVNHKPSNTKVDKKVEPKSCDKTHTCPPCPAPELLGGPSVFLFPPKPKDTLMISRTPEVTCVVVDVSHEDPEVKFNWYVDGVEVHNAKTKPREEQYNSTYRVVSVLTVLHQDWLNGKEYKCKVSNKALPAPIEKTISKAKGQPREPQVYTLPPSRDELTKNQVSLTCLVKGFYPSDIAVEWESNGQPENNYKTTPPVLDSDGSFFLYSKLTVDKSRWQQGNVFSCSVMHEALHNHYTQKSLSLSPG
light: DIVMTQSPSSLSASVGDRVTITCKASQNVRTNVAWYQQKPGKAPKALIYSASYRYSGVPDRFTGSGSGTDFTLTISSLQPEDFADYFCQQYNSYPRTFGGGTKVEIKRTVAAPSVFIFPPSDEQLKSGTASVVCLLNNFYPREAKVQWKVDNALQSGNSQESVTEQDSKDSTYSLSSTLTLSKADYEKHKVYACEVTHQGLSSPVTKSFNRGEC
notes: Positions are EU numbers; also called corresponding antibody with a wild-type (unmutated) IgG1 Fc domain; copies: 2 + 2
binding result [5]: no binding (tested: 500 nM (range given in FIG. 7))

IC50, inhibition of SCF-dependent M-07e cell proliferation (human KIT): 1.11 nM
Kd [17]: 0.38 nM
Kd [18]: 77.1 nM
binding result (recombinant human FcγRI [22]): no binding (tested: 500 nM)
binding result [23]: no binding (tested: 500 nM)
kon [24]: 1.05e+06 M⁻¹ s⁻¹
Kd [25]: 0.383 nM
kon [25]: 2e+06 M⁻¹ s⁻¹
koff [26]: 0.0807 s⁻¹
koff [27]: 0.000765 s⁻¹
B2: mAb1 (antibody, human IgG1, kappa)
heavy: QVQLVQSGAEVKKPGASVKLSCKASGYTFTDYYINWVRQAPGKGLEWIARIYPGSGNTYYNEKFKGRATLTADKSTSTAYMQLSSLRSEDTAVYFCARGVYYFDYWGQGTTVTVSSASTKGPSVFPLAPSSKSTSGGTAALGCLVKDYFPEPVTVSWNSGALTSGVHTFPAVLQSSGLYSLSSVVTVPSSSLGTQTYICNVNHKPSNTKVDKKVEPKSCDKTHTCPPCPAPEAQGGPSVFLFPPKPKDTLYITREPEVTCVVVDVSHEDPEVKFNWYVDGVEVHNAKTKPREEQYNSTYRVVSVLTVLHQDWLNGKEYKCQVSNKALPAPIEKTISKAKGQPREPQVYTLPPSRDELTKNQVSLTCLVKGFYPSDIAVEWESNGQPENNYKTTPPVLDSDGSFFLYSKLTVDKSRWQQGNVFSCSVMHEALHNHYTQKSLSLSPG
light: DIVMTQSPSSLSASVGDRVTITCKASQNVRTNVAWYQQKPGKAPKALIYSASYRYSGVPDRFTGSGSGTDFTLTISSLQPEDFADYFCQQYNSYPRTFGGGTKVEIKRTVAAPSVFIFPPSDEQLKSGTASVVCLLNNFYPREAKVQWKVDNALQSGNSQESVTEQDSKDSTYSLSSTLTLSKADYEKHKVYACEVTHQGLSSPVTKSFNRGEC
notes: Humanized anti-human KIT IgG1 with mutated Fc, expressed in CHO cells; also called antibody mAb 1; anti-KIT antibody; copies: 2 + 2
binding result [19]: no binding (tested: 500 nM (range given in FIG. 7))
binding result [20]: no binding (tested: 500 nM (range given in FIG. 7))
binding result [21]: no binding (tested: 500 nM (range given in FIG. 7))
